Experiments:
[1] = molecular target: human integrin αvβ8 on M000216 melanoma cells (human (endogenous in M000216)) (UniProt P06756); test: flow cytometry on cells
[2] = molecular target: mouse integrin αvβ8 on B16-mβ8 cells (mouse (endogenous in B16) | mouse) (UniProt P43406); test: flow cytometry on cells
[3] = molecular target: mouse integrin αvβ6 on B16-mβ6 cells (mouse (endogenous in B16) | mouse) (UniProt P43406); test: flow cytometry on cells
[4] = molecular target: mouse integrin αvβ6 on CMT-93 cells (mouse (endogenous in CMT-93)) (UniProt P43406); test: flow cytometry on cells
[5] = molecular target: recombinant soluble fiber knob of mouse adenovirus 3 (FK-M3) (mouse adenovirus 3 (MAdV-3)); test: SEC-MALS
[6] = molecular target: biotinylated fiber knob of mouse adenovirus 3 (FKb-M3) (mouse adenovirus 3 (MAdV-3)); test: SPR; […], single cycle; Biacore T200, 20°C; […] (CaCl2, MgCl2, […]; 1:1 kinetic model
SEC-MALS = molecular target: the molecule itself; test: SEC-MALS
[7] = molecular target: T1, soluble mouse integrin αvβ6 (sITG mαvβ6) (mouse, UniProt P43406;Q9Z0T9); test: SPR; […], single cycle; Biacore T200, 20°C; […] (CaCl2, MgCl2, […]; 1:1 kinetic model; settings: both partners purified
T1 construct: also called mouse sITG αvβ6; source: bought: R&D Systems, expressed in and secreted from CHO cells

[8] = molecular target: T2, soluble human integrin αvβ8 (sITG hαvβ8) (human, UniProt P06756;P26012); test: as above; settings: both partners purified
T2 construct: also called human sITG αvβ8
T2 sequence (P06756 31-992, chain 1 of 2): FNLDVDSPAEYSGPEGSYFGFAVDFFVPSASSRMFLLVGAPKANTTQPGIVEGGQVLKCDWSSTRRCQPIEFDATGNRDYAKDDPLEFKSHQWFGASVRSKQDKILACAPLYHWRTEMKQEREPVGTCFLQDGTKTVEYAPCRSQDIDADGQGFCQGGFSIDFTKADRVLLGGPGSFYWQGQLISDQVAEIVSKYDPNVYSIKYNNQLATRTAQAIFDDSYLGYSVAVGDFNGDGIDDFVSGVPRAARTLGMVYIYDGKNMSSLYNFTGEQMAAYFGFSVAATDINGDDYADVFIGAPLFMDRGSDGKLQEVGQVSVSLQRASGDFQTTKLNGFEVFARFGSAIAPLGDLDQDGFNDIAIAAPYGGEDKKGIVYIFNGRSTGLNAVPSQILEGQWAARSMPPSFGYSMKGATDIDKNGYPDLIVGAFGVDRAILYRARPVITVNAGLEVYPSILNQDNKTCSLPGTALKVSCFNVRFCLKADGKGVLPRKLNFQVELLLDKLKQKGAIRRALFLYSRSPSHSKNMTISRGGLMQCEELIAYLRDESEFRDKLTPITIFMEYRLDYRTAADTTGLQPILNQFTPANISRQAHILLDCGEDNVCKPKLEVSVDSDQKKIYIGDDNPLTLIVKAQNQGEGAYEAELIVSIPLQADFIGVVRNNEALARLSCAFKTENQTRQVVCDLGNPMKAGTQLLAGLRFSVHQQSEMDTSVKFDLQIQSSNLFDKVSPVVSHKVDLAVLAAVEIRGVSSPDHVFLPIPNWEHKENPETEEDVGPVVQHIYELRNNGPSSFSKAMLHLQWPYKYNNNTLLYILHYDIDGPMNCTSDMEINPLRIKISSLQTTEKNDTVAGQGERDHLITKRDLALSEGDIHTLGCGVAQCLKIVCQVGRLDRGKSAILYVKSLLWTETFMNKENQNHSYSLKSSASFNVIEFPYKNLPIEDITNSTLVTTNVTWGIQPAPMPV
T2 sequence (P26012 43-684, chain 2 of 2): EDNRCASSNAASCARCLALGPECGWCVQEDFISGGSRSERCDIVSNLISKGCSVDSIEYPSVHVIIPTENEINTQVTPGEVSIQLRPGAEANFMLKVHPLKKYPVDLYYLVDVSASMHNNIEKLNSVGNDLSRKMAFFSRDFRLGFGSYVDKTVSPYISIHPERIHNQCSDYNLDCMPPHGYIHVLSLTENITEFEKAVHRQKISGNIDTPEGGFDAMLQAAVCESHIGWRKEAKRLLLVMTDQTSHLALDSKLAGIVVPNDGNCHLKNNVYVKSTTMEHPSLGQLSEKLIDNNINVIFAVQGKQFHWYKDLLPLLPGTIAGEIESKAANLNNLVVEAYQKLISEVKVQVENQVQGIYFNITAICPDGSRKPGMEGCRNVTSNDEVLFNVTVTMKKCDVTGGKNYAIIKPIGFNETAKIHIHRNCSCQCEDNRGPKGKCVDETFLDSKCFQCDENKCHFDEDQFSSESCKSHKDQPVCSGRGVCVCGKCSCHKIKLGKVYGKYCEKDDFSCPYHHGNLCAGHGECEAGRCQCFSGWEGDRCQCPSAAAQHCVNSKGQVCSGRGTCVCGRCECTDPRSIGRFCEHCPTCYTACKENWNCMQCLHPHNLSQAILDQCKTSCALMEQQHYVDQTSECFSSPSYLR

[9] = molecular target: T3, soluble human integrin αvβ6 (sITG hαvβ6) (human, UniProt P06756;P18564); test: as above; settings: both partners purified
T3 construct: also called human sITG αvβ6
T3 sequence (P06756 31-992, chain 1 of 2): as the sequence (P06756 31-992, chain 1 of 2) above
T3 sequence (P18564 22-709, chain 2 of 2): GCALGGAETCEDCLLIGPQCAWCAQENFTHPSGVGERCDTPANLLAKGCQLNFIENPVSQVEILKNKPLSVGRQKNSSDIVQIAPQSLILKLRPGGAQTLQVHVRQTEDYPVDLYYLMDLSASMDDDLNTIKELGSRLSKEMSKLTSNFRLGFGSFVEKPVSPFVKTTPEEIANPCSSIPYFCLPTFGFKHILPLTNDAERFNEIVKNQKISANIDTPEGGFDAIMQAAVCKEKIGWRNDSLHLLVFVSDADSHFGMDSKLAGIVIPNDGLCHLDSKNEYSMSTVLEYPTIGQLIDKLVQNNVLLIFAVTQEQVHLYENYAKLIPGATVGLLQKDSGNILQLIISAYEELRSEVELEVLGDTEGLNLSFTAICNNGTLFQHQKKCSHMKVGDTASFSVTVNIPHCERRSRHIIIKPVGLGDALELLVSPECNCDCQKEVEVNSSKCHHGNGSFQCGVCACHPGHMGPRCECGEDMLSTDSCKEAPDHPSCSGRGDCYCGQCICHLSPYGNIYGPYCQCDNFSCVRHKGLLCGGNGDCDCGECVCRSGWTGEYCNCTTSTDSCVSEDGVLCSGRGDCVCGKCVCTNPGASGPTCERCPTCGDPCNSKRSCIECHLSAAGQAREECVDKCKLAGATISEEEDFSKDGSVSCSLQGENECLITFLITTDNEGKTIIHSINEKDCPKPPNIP

[10] = molecular target: T4, mouse integrin αvβ6 on B16-mβ6 cells (mouse (endogenous in B16) | mouse, UniProt P43406;Q9Z0T9); test: flow cytometry on cells; settings: one partner purified
T4 construct: also called mαvβ6

mouse integrin αvβ8 on B16-mβ8 cells (mouse (endogenous in B16) | mouse), sequence (P43406 31-1044, chain 1 of 2): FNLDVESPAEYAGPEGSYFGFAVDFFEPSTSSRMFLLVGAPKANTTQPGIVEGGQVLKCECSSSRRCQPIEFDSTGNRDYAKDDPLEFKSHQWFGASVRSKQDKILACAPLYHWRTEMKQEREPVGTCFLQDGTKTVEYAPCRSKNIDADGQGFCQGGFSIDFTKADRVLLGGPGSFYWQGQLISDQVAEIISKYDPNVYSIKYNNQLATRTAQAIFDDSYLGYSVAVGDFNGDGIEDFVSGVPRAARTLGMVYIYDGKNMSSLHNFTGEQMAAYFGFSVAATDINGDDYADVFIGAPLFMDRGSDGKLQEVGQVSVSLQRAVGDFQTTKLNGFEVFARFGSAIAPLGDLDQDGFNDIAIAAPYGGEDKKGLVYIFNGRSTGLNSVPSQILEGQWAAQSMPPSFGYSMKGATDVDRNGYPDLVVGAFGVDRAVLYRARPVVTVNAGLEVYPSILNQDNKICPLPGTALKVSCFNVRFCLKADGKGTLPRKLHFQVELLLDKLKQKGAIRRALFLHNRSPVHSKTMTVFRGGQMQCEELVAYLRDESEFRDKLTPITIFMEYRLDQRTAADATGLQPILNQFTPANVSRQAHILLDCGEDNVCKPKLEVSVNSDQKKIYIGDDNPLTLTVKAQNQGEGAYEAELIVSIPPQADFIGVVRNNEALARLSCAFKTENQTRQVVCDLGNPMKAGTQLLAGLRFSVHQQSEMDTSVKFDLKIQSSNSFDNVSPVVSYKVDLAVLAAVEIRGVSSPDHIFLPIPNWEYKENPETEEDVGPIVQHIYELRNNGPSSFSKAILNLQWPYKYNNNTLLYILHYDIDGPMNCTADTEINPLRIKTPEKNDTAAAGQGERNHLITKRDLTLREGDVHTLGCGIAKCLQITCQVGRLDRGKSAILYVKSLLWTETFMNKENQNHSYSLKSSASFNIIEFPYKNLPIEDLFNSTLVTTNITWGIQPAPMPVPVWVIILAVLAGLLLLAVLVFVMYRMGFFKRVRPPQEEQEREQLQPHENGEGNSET
mouse integrin αvβ8 on B16-mβ8 cells (mouse (endogenous in B16) | mouse), sequence (Q0VBD0 22-767, chain 2 of 2, further chain): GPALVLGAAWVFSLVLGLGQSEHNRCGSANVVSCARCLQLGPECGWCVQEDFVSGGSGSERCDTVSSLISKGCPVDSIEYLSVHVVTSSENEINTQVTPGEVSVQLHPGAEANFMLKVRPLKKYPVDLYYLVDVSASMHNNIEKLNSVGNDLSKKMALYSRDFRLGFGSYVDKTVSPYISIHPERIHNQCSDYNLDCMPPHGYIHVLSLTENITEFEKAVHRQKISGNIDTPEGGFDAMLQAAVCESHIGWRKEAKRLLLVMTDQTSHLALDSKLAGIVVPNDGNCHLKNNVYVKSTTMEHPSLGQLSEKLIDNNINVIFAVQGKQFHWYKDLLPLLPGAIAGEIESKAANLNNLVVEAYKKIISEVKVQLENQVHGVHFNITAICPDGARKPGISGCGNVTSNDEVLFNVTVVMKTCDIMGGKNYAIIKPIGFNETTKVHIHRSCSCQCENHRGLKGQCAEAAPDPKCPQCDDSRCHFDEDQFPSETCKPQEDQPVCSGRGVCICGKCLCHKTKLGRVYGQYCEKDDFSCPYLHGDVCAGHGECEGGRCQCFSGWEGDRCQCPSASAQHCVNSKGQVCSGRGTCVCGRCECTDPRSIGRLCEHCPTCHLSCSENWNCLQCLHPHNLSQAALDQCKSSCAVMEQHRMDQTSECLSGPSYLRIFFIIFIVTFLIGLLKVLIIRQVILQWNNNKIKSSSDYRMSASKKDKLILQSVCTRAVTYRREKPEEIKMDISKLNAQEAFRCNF

## MAdV-1-IX-2A-GFP virus particles (M1-IX-G), bearing the M1 fiber (from UniProt P19721 1-613) (complex)
[1]
  fold increase of the binding enhancement in the presence of Mn2+: 1.5 fold
[2]
  fold increase of virus binding, Mg2+/Ca2+ buffer: 1.3 fold

## MAdV-3-IX-2A-GFP virus particles (M3-IX-G), bearing the M3 fiber (complex)
[1]
  fold increase of the binding enhancement in the presence of Mn2+: 3.4 fold
[2]
  fold increase of virus binding, Mg2+/Ca2+ buffer: 1.3 fold
  fold increase of virus binding, Mn2+ buffer: 2.7 fold

## recombinant soluble fiber knob of mouse adenovirus 3 (FK-M3) (domain or fragment)
[1]
  Kd: 1.21 nM
[3]
  Kd: 0.068 nM
[4]
  Kd: 0.069 nM
[2]
  Kd: 1.31 nM
[5]
  stoichiometry N: 3

## soluble human integrin αvβ6 (sITG hαvβ6) (from UniProt P06756;P18564) (receptor)
[6]
  Kd: 0.059 nM
  koff: 5.01e-06 s⁻¹
  kon: 85000 M⁻¹ s⁻¹

## soluble human integrin αvβ8 (sITG hαvβ8) (from UniProt P06756;P26012) (receptor)
[6]
  Kd: 1.32 nM
  koff: 0.000965 s⁻¹
  kon: 729000 M⁻¹ s⁻¹

## soluble mouse integrin αvβ6 (sITG mαvβ6) (from UniProt P43406;Q9Z0T9) (receptor)
[6]
  Kd: < 0.01 nM
  koff: 3.12e-08 s⁻¹
  kon: 51300 M⁻¹ s⁻¹

B1: biotinylated fiber knob of human adenovirus C5 (FKb-H5) (domain or fragment)
chain: TPAPSPNCRLNAEKDAKLTLVLTKCGSQILATVSVLAVKGSLAPISGTVQSAHLIIRFDENGVLLNNSFLDPEYWNFRNGDLTEGTAYTNAVGFMPNLSAYPKSHGKTAKSNIVSQVYLNGDKTKPVTLTITLNGTQETGDTTPSAYSMSFSWDWSGHNYINEIFATSSYTFSYIAQE
modifications: biotin (biotinylated by co-expressed protein biotin ligase BirA)
SEC-MALS
  stoichiometry N: 3

B2: biotinylated fiber knob of mouse adenovirus 1 (FKb-M1) (domain or fragment)
chain: GLPIGNNGTFHTKQDCKIFLSLTRLGPMVHGTFMLQAPQYELTTNGMREITFSFNSTGGLEQPAPVTYWGALDPPPTAKAAEIENQKRVKKRAAPDPPVEPPPKRRGDLAVLFAKVAEQAMELAKEQAVQAQPPEHVNTDWADHMNLLRFMPNTLVYPTAATIAANLQFHDTRLSLRRATLKIRLNGSPDSAYQLGFMLELVGTQSASIVTDTISFWYYAEDY
modifications: biotin (biotinylated by co-expressed protein biotin ligase BirA)
[7]
  Kd: 0.25 nM
  koff: 1.66e-05 s⁻¹
  kon: 66400 M⁻¹ s⁻¹
[8]
  Kd: 14.5 nM
  koff: 0.00673 s⁻¹
  kon: 465000 M⁻¹ s⁻¹
[9]
  Kd: 1.58 nM
  koff: 0.000127 s⁻¹
  kon: 80200 M⁻¹ s⁻¹
SEC-MALS
  stoichiometry N: 3

B3: recombinant soluble fiber knob of mouse adenovirus 1 (FK-M1) (domain or fragment)
chain: GLPIGNNGTFHTKQDCKIFLSLTRLGPMVHGTFMLQAPQYELTTNGMREITFSFNSTGGLEQPAPVTYWGALDPPPTAKAAEIENQKRVKKRAAPDPPVEPPPKRRGDLAVLFAKVAEQAMELAKEQAVQAQPPEHVNTDWADHMNLLRFMPNTLVYPTAATIAANLQFHDTRLSLRRATLKIRLNGSPDSAYQLGFMLELVGTQSASIVTDTISFWYYAEDY
notes: source: pET28a expression, purified (Ni-NTA); not shown: His6, N-terminal, kept
[10]
  Kd: 1.27 ± 0.66 nM

— PMC8673666 (PLoS Pathogens, 2021)
